B1: ZBED2 (parent)
chain: FHLAPARAGHHPNQYATCRLCGRQ

Variants of: B1
Assay: protein stability index of a GFP-peptide fusion (GPS, HEK-293T) (PSI 1-6); higher = more stable
Conditions: c terminus: a fixed tail appended
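Note: lentivirally expressed fusions sorted by FACS into six bins by GFP to DsRed ratio, PSI derived from sequencing read proportions per bin multiplied by bin number.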

Variant	protein stability index
FHLAPARAGHHPNQYATCRLHGRQ	2.52
FHLAPARAGHHPNQYATCRLYGRQ	1.73
FHLAPARAGHHPNQYATCRLKGRQ	2.31
FHLAPARAGHHPNQYATCRLLGRQ	1.95
FHLAPARAGHHPNQYATCRLSGRQ	3.43
FHLAPARAGHHPNQYATCRLWGRQ	2.1
FHLAPARAGHHPNQYATCRLQGRQ	2.08
FHLAPARAGHHPNQYATCRLTGRQ	2.72
FHLAPARAGHHPNQYATCRLAGRQ	3.59
FHLAPARAGHHPNQYATCRLIGRQ	1.74
FHLAPARAGHHPNQYATCRLPGRQ	2.59
FHLAPARAGHHPNQYATCRLMGRQ	1.26
FHLAPARAGHHPNQYATCRLFGRQ	1.97
FHLAPARAGHHPNQYATCRLNGRQ	1.96
FHLAPARAGHHPNQYMTCRLCGRQ	1.61
FHLAPARAGHHPNQYPTCRLCGRQ	2.4
FHLAPARAGHHPNQYGTCRLCGRQ	1.59
FHLAPARAGHHPNQYYTCRLCGRQ	2.9
FHLAPARAGHHPNQYETCRLCGRQ	1.93
FHLAPARAGHHPNQYLTCRLCGRQ	1.42
FHLAPARAGHHPNQYKTCRLCGRQ	1.03
FHLAPARAGHHPNQYNTCRLCGRQ	2.38
FHLAPARAGHHPNQYCTCRLCGRQ	2.85
FHLAPARAGHHPNQYSTCRLCGRQ	1.82

Variant	protein stability index
FHLAPARAGHHPNQYFTCRLCGRQ	2.37
FHLAPARAGHHPNQYHTCRLCGRQ	2.27
FHLAPARAGHHPNQYITCRLCGRQ	2.69
FHLAPARAGHHPNQYTTCRLCGRQ	2.3
FHLAPARAGHHYNQYATCRLCGRQ	1.47
FHLAPARAGHHCNQYATCRLCGRQ	2.67
FHLAPARAGHHSNQYATCRLCGRQ	2.23
FHLAPARAGHHFNQYATCRLCGRQ	2.1
FHLAPARAGHHINQYATCRLCGRQ	1.95
FHLAPARAGHHHNQYATCRLCGRQ	3.06
FHLAPARAGHHWNQYATCRLCGRQ	1.52
FHLAPARAGHHANQYATCRLCGRQ	1.5
FHLAPARAGHHVNQYATCRLCGRQ	1.49
FHLAPARAGHHLNQYATCRLCGRQ	2.12
FHLAPARAGHHGNQYATCRLCGRQ	2.48
FHLAPARAGHHPNQYATCRLCGWQ	2.46
FHLAPARAGHHPNQYATCRLCGEQ	1.54
FHLAPARAGHHPNQYATCRLCGCQ	1.32
FHLAPARAGHHPNQYATCRLCGMQ	1.81
FHLAPARAGHHPNQYATCRLCGKQ	1.37
FHLAPARAGHHPNQYATCRLCGSQ	1.52
FHLAPARAGHHPNQYATCRLCGQQ	2.43
FHLAPARAGHHPNQYATCRLCGYQ	1.83
FHLAPARAGHHPNQYATCRLCGIQ	1.93

Variant	protein stability index
FHLAPARAGHHPNQYATCRLCGAQ	1.85
FHLAPARAGHHPNQYATCRLCGFQ	2.1
FHLAPARAGHHPNQYATCRLCGDQ	2
FHLAPARAGHHPNQYATCRLCGNQ	2.07
FHLAPARAGHHPNQYATWRLCGRQ	1.97
FHLAPARAGHHPNQYATTRLCGRQ	2.87
FHLAPARAGHHPNQYATMRLCGRQ	1.93
FHLAPARAGHHPNQYATQRLCGRQ	2.87
FHLAPARAGHHPNQYATNRLCGRQ	3.56
FHLAPARAGHHPNQYATIRLCGRQ	2.17
FHLAPARAGHHPNQYATVRLCGRQ	2.25
FHLAPARAGHHPNQYATFRLCGRQ	1.93
FHLAPARAGHHPNQYATHRLCGRQ	2.27
FHLAPARAGHHPNQYATPRLCGRQ	2.9
FHLAPARAGHHPNQYATERLCGRQ	3.08
FHLAPARAGHHPNQYATKRLCGRQ	2.22
FHLAPARAGHHPNQYATSRLCGRQ	2.4
FHLAPARAGHHPNQYATARLCGRQ	2.12
FHLAPARAGHHPNQYATLRLCGRQ	1.42
FHLAPARAGHHPNQYATYRLCGRQ	1.93
FHLAPARAGHHPNQYATCRLCWRQ	1.7
FHLAPARAGHHPNQYATCRLCHRQ	2.05
FHLAPARAGHHPNQYATCRLCFRQ	1.95
FHLAPARAGHHPNQYATCRLCARQ	1.03

Variant	protein stability index
FHLAPARAGHHPNQYATCRLCQRQ	1.82
FHLAPARAGHHPNQYATCRLCIRQ	2.08
FHLAPARAGHHPNQYATCRLCPRQ	2.92
FHLAPARAGHHPNQYATCRLCTRQ	2.82
FHLAPARAGHHPNQYATCRLCLRQ	2.57
FHLAPARAGHHPNQYATCRLCCRQ	2.87
FHLAPARAGHHPNQYATCRLCERQ	1.93
FHLAPARAGHHPNQYATCRLCNRQ	1.56
FHLAPARAGHHPNQYATCRLCMRQ	1.21
FHLAPARAGHHPNQYATCRLCYRQ	2.12
FHLAPARAGHHPNQYATCRLCGRE	2.12
FHLAPARAGHHPNQYATCRLCGRH	2
FHLAPARAGHHPNQYATCRLCGRM	1.24
FHLAPARAGHHPNQYATCRLCGRP	1.91
FHLAPARAGHHPNQYATCRLCGRS	2.03
FHLAPARAGHHPNQYATCRLCGRF	3.46
FHLAPARAGHHPNQYATCRLCGRG	2.41
FHLAPARAGHHPNQYATCRLCGRL	2.19
FHLAPARAGHHPNQYATCRLCGRA	1.9
FHLAPARAGHHPNQYATCRLCGRC	1.84
FHLAPARAGRHPNQYATCRLCGRQ	1.21
FHLAPARAGMHPNQYATCRLCGRQ	2.81
FHLAPARAGTHPNQYATCRLCGRQ	3.52
FHLAPARAGNHPNQYATCRLCGRQ	1.55

Variant	protein stability index
FHLAPARAGYHPNQYATCRLCGRQ	1.7
FHLAPARAGVHPNQYATCRLCGRQ	1.19
FHLAPARAGLHPNQYATCRLCGRQ	1.7
FHLAPARAGSHPNQYATCRLCGRQ	2.24
FHLAPARAGKHPNQYATCRLCGRQ	2.63
FHLAPARAGPHPNQYATCRLCGRQ	2.05
FHLAPARAGQHPNQYATCRLCGRQ	2.13
FHLAPARAGWHPNQYATCRLCGRQ	1.78
FHLAPARAGIHPNQYATCRLCGRQ	2.3
FHLAPARAGHHPNTYATCRLCGRQ	1.47
FHLAPARAGHHPNCYATCRLCGRQ	2.11
FHLAPARAGHHPNSYATCRLCGRQ	1.48
FHLAPARAGHHPNPYATCRLCGRQ	2.48
FHLAPARAGHHPNKYATCRLCGRQ	2.58
FHLAPARAGHHPNEYATCRLCGRQ	2.16
FHLAPARAGHHPNDYATCRLCGRQ	1.99
FHLAPARAGHHPNYYATCRLCGRQ	2.31
FHLAPARAGHHPNQEATCRLCGRQ	2.43
FHLAPARAGHHPNQHATCRLCGRQ	2.14
FHLAPARAGHHPNQPATCRLCGRQ	1.07
FHLAPARAGHHPNQIATCRLCGRQ	1.63
FHLAPARAGHHPNQVATCRLCGRQ	1.57
FHLAPARAGHHPNQKATCRLCGRQ	1.53
FHLAPARAGHHPNQFATCRLCGRQ	2.54

Variant	protein stability index
FHLAPARAGHHPNQQATCRLCGRQ	2.65
FHLAPARAGHHPNQRATCRLCGRQ	1.15
FHLAPARAGHHPNQCATCRLCGRQ	1.44
FHLAPARAGHHPNQYAKCRLCGRQ	1.72
FHLAPARAGHHPNQYAMCRLCGRQ	2.42
FHLAPARAGHHPNQYAECRLCGRQ	1.73
FHLAPARAGHHPNQYADCRLCGRQ	2.85
FHLAPARAGHHPNQYAFCRLCGRQ	2.23
FHLAPARAGHHPNQYANCRLCGRQ	1.99
FHLAPARAGHHPNQYACCRLCGRQ	1.68
FHLAPARAGHHPNQYASCRLCGRQ	2.47
FHLAPARAGHHPNQYAGCRLCGRQ	2.76
FHLAPARAGHHPNQYAYCRLCGRQ	2.15
FHLAPARAGHHPNQYALCRLCGRQ	1.25
FHLAPARAGHHPNQYAICRLCGRQ	1.55
FHLAPARAGHHPNQYAPCRLCGRQ	1.69
FHLAPARAGHHPNQYATCGLCGRQ	2.11
FHLAPARAGHHPNQYATCKLCGRQ	3.11
FHLAPARAGHHPNQYATCFLCGRQ	1.64
FHLAPARAGHHPNQYATCSLCGRQ	1.92
FHLAPARAGHHPNQYATCELCGRQ	1.7
FHLAPARAGHHPNQYATCYLCGRQ	1.16
FHLAPARAGHHPNQYATCQLCGRQ	2.36
FHLAPARAGHHPNQYATCHLCGRQ	2.05

Variant	protein stability index
FHLAPARAGHHPNQYATCNLCGRQ	1.52
FHLAPARAGHHPNQYATCWLCGRQ	1.3
FHLAPARAGHHPNQYATCVLCGRQ	2.78
FHLAPARAGHHPNQYATCTLCGRQ	1.81
FHLAPARAGHHPNQYATCALCGRQ	1.93
FHLAPARAGHHPNQYATCRVCGRQ	2.27
FHLAPARAGHHPNQYATCRDCGRQ	1.27
FHLAPARAGHHPNQYATCRTCGRQ	1.82
FHLAPARAGHHPNQYATCRCCGRQ	1.54
FHLAPARAGHHPNQYATCRYCGRQ	3.71
FHLAPARAGHHPNQYATCRNCGRQ	1.31
FHLAPARAGHHPNQYATCRMCGRQ	1.94
FHLAPARAGHHPNQYATCRQCGRQ	1.18
FHLAPARAGHHPNQYATCRGCGRQ	2.82
FHLAPARAGHHPNQYATCRSCGRQ	2.22
FHLAPARAGHHPNQYATCRFCGRQ	2.4
FHLAPARAGHHPNQYATCRHCGRQ	1.55
FHLAPARAGHHPNQYATCRPCGRQ	2.23
FHLAPARAGHHPNQYATCRRCGRQ	1.92
FHLAPARAGHHPIQYATCRLCGRQ	1.42
FHLAPARAGHHPMQYATCRLCGRQ	1.52
FHLAPARAGHHPAQYATCRLCGRQ	2.34
FHLAPARAGHHPKQYATCRLCGRQ	1.77
FHLAPARAGHHPDQYATCRLCGRQ	1.43

Variant	protein stability index
FHLAPARAGHHPCQYATCRLCGRQ	2.97
FHLAPARAGHHPEQYATCRLCGRQ	3.21
FHLAPARAGHHPYQYATCRLCGRQ	1.55
FHLAPARAGHHPQQYATCRLCGRQ	1.98
FHLAPARAGHHPTQYATCRLCGRQ	1.52
FHLAPARAGHIPNQYATCRLCGRQ	1.33
FHLAPARAGHKPNQYATCRLCGRQ	1.58
FHLAPARAGHFPNQYATCRLCGRQ	1.98
FHLAPARAGHCPNQYATCRLCGRQ	2.12
FHLAPARAGHWPNQYATCRLCGRQ	1.04
FHLAPARAGHNPNQYATCRLCGRQ	1.39
FHLAPARAGHEPNQYATCRLCGRQ	2.04
FHLAPARAGHAPNQYATCRLCGRQ	2.48
FHLAPARAGHGPNQYATCRLCGRQ	2.01
FHLAPARAGHPPNQYATCRLCGRQ	1.4
FHLAPARAGHTPNQYATCRLCGRQ	1.95
FHLAPARAGHQPNQYATCRLCGRQ	1.29
FHLAPARAGHMPNQYATCRLCGRQ	2.35
FHLAPARAGHVPNQYATCRLCGRQ	1.98
FHLAPARAGHDPNQYATCRLCGRQ	1.46

Source: the supplement of paper PMC10567573
